The values that follow are results of earlier work, collected in patent US20020119915A1, “Nutritional intervention composition containing a source of proteinase inhibitor extending post meal satiety” (priority 1999, published 2002).

For the data set, the system named is humans. Conditions: injection, 1981 study.

B1: Cholecystokinin (peptide, UniProt P06307 21-115, looked up)
Cholecystokinin: QPVPPADPAGSGLQRAEEAPRRQLRVSQRTDGESRAHLGALLARYIQQARKAPSGRMSIVKNLQNLDPSHRISDRDYMGWMDFGRRSAEEYEYPS
modifications: Cholecystokinin
For B1, the “Decrease of food intake” value was 16%.
